Data on one substance can be found in patent publication US20240131162A1.

The target in this experiment is HER-2 (human) (UniProt P04626). Kind of experiment: SPR (BIAcore), HER-2 immobilised, antibody as analyte. (SPR reads the build-up and loss of mass on a sensor chip optically.)

Consider ch4D5 (antibody), for which the koff (commonly the first-order rate constant of dissociation) was determined as 6.3e-06 s⁻¹ and the kon – broadly, the rate constant with which the complex forms – was determined as 110000 M⁻¹ s⁻¹.
